Tested on: Escherichia coli DH5α with EPSPS gene knocked out
Assay: Resistance test of rice EPSPS mutants from error-prone PCR on OsGPV: colony growth on medium with 0, 100 mM and 125 mM glyphosate (FIG. 7)
Type: cell-based
Conditions: 125 mM glyphosate pressure, FIG. 7
Excerpt: In order to further improve the glyphosate resistance and develop highly resistant rice EPSPS mutants that can meet commercial production requirements, we used OsGPV as a template to perform random mutations, with high-concentration glyphosate screening, and to identify EPSPS mutant that can improve the glyphosate resistance.
We used OsGPV(SEQ ID NO:6) as a template to perform error-prone PCR. (With GeneMorph II Random Mutagenesis Kit, #200550, Agilent Technologies).
a) The recovered product was digested with EcoRI and SbfI, and then ligated to the pKED2 vector after the same double digestion with T4 DNA ligase to obtain the ligation product to obtain the vector carrying the rice EPSPS gene mutant.
b) Transformed the above vector into Escherichia coli DH5α with EPSPS gene knocked out. The transformation steps were as follows: add the above ligation product to 50 μl E. coli DH5α competent cells with EPSPS gene knocked out, mix well and incubate on ice for 30 min, then after a heat shock at 42° C. for 90 s, immediately place it in an ice bath on ice for 2 min after taking it out. After the ice bath, add 500 μl of LB liquid medium and resuscitate at 37° C. at 180 r/min for 45 min. The transformed Escherichia coli was a mutant library expressing rice EPSPS mutant genes obtained on the template basis of OsGPV.
5) Centrifuged the transformed product obtained above at 3000 rpm for 5 min, discarded the supernatant, then resuspended it in 1 ml M9 liquid medium, added 200 μl M9 liquid medium to resuspend and inoculated it on an M9 plate containing 75 mM glyphosate. Incubated at 37 degrees for 24 hours.
Pick and saved the single colonies grown in the above screening plates, and conduct further resistance identification and sequencing
ii. Resistance test of rice mutants. In this example, the wild-type rice EPSPS gene OsWT, the most widely used commercial glyphosate-resistant gene CP4EPSPS, the rice mutantOsTIPS, which had the same mutation type with commercial glyphosate-resistant corn GA21, and the rice mutant OsGPV with the highly glyphosate-resistant rice EPSPS mutant gene obtained in this study were transformed as control, and the newly obtained rice EPSPS mutants were transformed as the experimental group, and the glyphosate resistance among the control and the mutants were compared. The monoclonal bacteria of the control group and the experimental group were respectively inoculated into a medium containing 0, 100 mM and 125 mM glyphosate, and the growth of colonies in each group was observed.

Molecule	colony growth status compared with OsGPV
1-552: rice EPSPS with G172A, P177S, K399N, V403A and T466S mutations (protein, This sequence is synthesized in lab., rice EPSPS with G172A, P177S, K399N, V403A and T466S mutations) MAAKAEEIVLQPIREISGAVQLPGSKSLSNRILLLSALSEGTTVVDNLLNSEDVHYMLEALKALGLSVEADKVAKRAVVVGCGGKFPVEKDAKEEVQLFLGNAATAMRSLTAAVTAAGGNATYVLDGVPRMRERPIGDLVVGLKQLGADVDCFLGTECPPVRVKGIGGLPGGKVKLSGSISSQYLSALLMAAPLALGDVEIEIIDKLISIPYVEMTLRLMERFGVKAEHSDSWDRFYIKGGQKYKSPGNAYVEGDASSASYFLAGAAITGGTVTVQGCGTTSLQGDVKFAEVLEMMGAKVTWTDTSVTVTGPPREPYGKKHLKAVDVNMNNMPDAAMTLAVVALFADGPTAIRDVASWRVKETERMVAIRTELTKLGASVEEGPDYCIITPPEKLNITAIDTYDDHRMAMAFSLAACADVPVTIRDPGCTRKTFPNYFDVLSTFVRN	significantly higher than OsGPV
2-5: rice EPSPS with E163K, G172A, P177S, A216V, L253M, H389R and V403A mutations (protein, This sequence is synthesized in lab., rice EPSPS with E163K, G172A, P177S, A216V, L253M, H389R and V403A mutations) MAAKAEEIVLQPIREISGAVQLPGSKSLSNRILLLSALSEGTTVVDNLLNSEDVHYMLEALKALGLSVEADKVAKRAVVVGCGGKFPVEKDAKEKVQLFLGNAATAMRSLTAAVTAAGGNATYVLDGVPRMRERPIGDLVVGLKQLGVDVDCFLGTECPPVRVKGIGGLPGGKVKLSGSISSQYMSALLMAAPLALGDVEIEIIDKLISIPYVEMTLRLMERFGVKAEHSDSWDRFYIKGGQKYKSPGNAYVEGDASSASYFLAGAAITGGTVTVQGCGTTSLQGDVKFAEVLEMMGAKVTWTDTSVTVTGPPREPYGKKRLKAVDVNMNKMPDAAMTLAVVALFADGPTAIRDVASWRVKETERMVAIRTELTKLGASVEEGPDYCIITPPEKLNITAIDTYDDHRMAMAFSLAACADVPVTIRDPGCTRKTFPNYFDVLSTFVRN	significantly higher than OsGPV
2-46: rice EPSPS with G172A, P177S, N246D and V403A mutations (protein, This sequence is synthesized in lab., rice EPSPS with G172A, P177S, N246D and V403A mutations) MAAKAEEIVLQPIREISGAVQLPGSKSLSNRILLLSALSEGTTVVDNLLNSEDVHYMLEALKALGLSVEADKVAKRAVVVGCGGKFPVEKDAKEEVQLFLGNAATAMRSLTAAVTAAGGNATYVLDGVPRMRERPIGDLVVGLKQLGADVDCFLGTECPPVRVKGIGGLPGGKVKLSGSISSQYLSALLMAAPLALGDVEIEIIDKLISIPYVEMTLRLMERFGVKAEHSDSWDRFYIKGGQKYKSPGDAYVEGDASSASYFLAGAAITGGTVTVQGCGTTSLQGDVKFAEVLEMMGAKVTWTDTSVTVTGPPREPYGKKHLKAVDVNMNKMPDAAMTLAVVALFADGPTAIRDVASWRVKETERMVAIRTELTKLGASVEEGPDYCIITPPEKLNITAIDTYDDHRMAMAFSLAACADVPVTIRDPGCTRKTFPNYFDVLSTFVRN	significantly higher than OsGPV
1-599: rice EPSPS with A73G, L134F, G172A, P177S, G265V, S374R and V403A mutations (protein, This sequence is synthesized in lab., rice EPSPS with A73G, L134F, G172A, P177S, G265V, S374R and V403A mutations) MAAKGEEIVLQPIREISGAVQLPGSKSLSNRILLLSALSEGTTVVDNLLNSEDVHYMLEALKALGFSVEADKVAKRAVVVGCGGKFPVEKDAKEEVQLFLGNAATAMRSLTAAVTAAGGNATYVLDGVPRMRERPIGDLVVGLKQLGADVDCFLGTECPPVRVKGIGGLPGGKVKLSGSISSQYLSALLMAAPLALVDVEIEIIDKLISIPYVEMTLRLMERFGVKAEHSDSWDRFYIKGGQKYKSPGNAYVEGDASSASYFLAGAAITGGTVTVQGCGTTSLQGDVKFAEVLEMMGAKVTWTDTRVTVTGPPREPYGKKHLKAVDVNMNKMPDAAMTLAVVALFADGPTAIRDVASWRVKETERMVAIRTELTKLGASVEEGPDYCIITPPEKLNITAIDTYDDHRMAMAFSLAACADVPVTIRDPGCTRKTFPNYFDVLSTFVRN	significantly higher than OsGPV
SEQ ID NO:19: rice EPSPS with A73K, D114H, V136M, K161E, G172A, P177S, A260T and V403A mutations; sample code not printed (protein, This sequence is synthesized in lab.) MAAKKEEIVLQPIREISGAVQLPGSKSLSNRILLLSALSEGTTVVHNLLNSEDVHYMLEALKALGLSMEADKVAKRAVVVGCGGKFPVEKDAEEEVQLFLGNAATAMRSLTAAVTAAGGNATYVLDGVPRMRERPIGDLVVGLKQLGADVDCFLGTECPPVRVKGIGGLPGGKVKLSGSISSQYLSALLMATPLALGDVEIEIIDKLISIPYVEMTLRLMERFGVKAEHSDSWDRFYIKGGQKYKSPGNAYVEGDASSASYFLAGAAITGGTVTVQGCGTTSLQGDVKFAEVLEMMGAKVTWTDTSVTVTGPPREPYGKKHLKAVDVNMNKMPDAAMTLAVVALFADGPTAIRDVASWRVKETERMVAIRTELTKLGASVEEGPDYCIITPPEKLNITAIDTYDDHRMAMAFSLAACADVPVTIRDPGCTRKTFPNYFDVLSTFVRN	significantly higher than OsGPV
SEQ ID NO:23: rice EPSPS with A73S, G172A, P177S, L214F and V403A mutations; sample code not printed (protein, This sequence is synthesized in lab.) MAAKSEEIVLQPIREISGAVQLPGSKSLSNRILLLSALSEGTTVVDNLLNSEDVHYMLEALKALGLSVEADKVAKRAVVVGCGGKFPVEKDAKEEVQLFLGNAATAMRSLTAAVTAAGGNATYVLDGVPRMRERPIGDLVVGLKQFGADVDCFLGTECPPVRVKGIGGLPGGKVKLSGSISSQYLSALLMAAPLALGDVEIEIIDKLISIPYVEMTLRLMERFGVKAEHSDSWDRFYIKGGQKYKSPGNAYVEGDASSASYFLAGAAITGGTVTVQGCGTTSLQGDVKFAEVLEMMGAKVTWTDTSVTVTGPPREPYGKKHLKAVDVNMNKMPDAAMTLAVVALFADGPTAIRDVASWRVKETERMVAIRTELTKLGASVEEGPDYCIITPPEKLNITAIDTYDDHRMAMAFSLAACADVPVTIRDPGCTRKTFPNYFDVLSTFVRN	significantly higher than OsGPV
2-47: rice EPSPS with G172A, M175A, P177S, M258L, K356E, V403A and F512I mutations (protein, This sequence is synthesized in lab., rice EPSPS with G172A, M175A, P177S, M258L, K356E, V403A and F512I mutations) MAAKAEEIVLQPIREISGAVQLPGSKSLSNRILLLSALSEGTTVVDNLLNSEDVHYMLEALKALGLSVEADKVAKRAVVVGCGGKFPVEKDAKEEVQLFLGNAATAARSLTAAVTAAGGNATYVLDGVPRMRERPIGDLVVGLKQLGADVDCFLGTECPPVRVKGIGGLPGGKVKLSGSISSQYLSALLLAAPLALGDVEIEIIDKLISIPYVEMTLRLMERFGVKAEHSDSWDRFYIKGGQKYKSPGNAYVEGDASSASYFLAGAAITGGTVTVQGCGTTSLQGDVEFAEVLEMMGAKVTWTDTSVTVTGPPREPYGKKHLKAVDVNMNKMPDAAMTLAVVALFADGPTAIRDVASWRVKETERMVAIRTELTKLGASVEEGPDYCIITPPEKLNITAIDTYDDHRMAMAFSLAACADVPVTIRDPGCTRKTFPNYFDVLSTIVRN	significantly higher than OsGPV

From patent US20250277196A1, “EPSPS MUTANTS AND METHOD OF ITS USES” (CROPEDIT BIOTECHNOLOGY INC., priority 2021, published 2025)
